In the supplement of paper PMC7125110:
± gives the standard error. For some of these results: Variants at the floor of the assay were thinned out.

B1: glmS ribozyme (parent)
chain: AUAAAAGCGCCAGAACUACAGAAAUGUAGUUGACGAGGAGGAGGUUUAUCGAAUUUUCGGCGGAUGCCUCCAAA

Assays:
Details in all cases: with glucosamine-6-phosphate
[1] = variants of: B1; assay: kcat; higher = faster cleavage; RNA array
Procedure, shortened: (§1)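 Glucosamine-6-phosphate, from 40 μM to 10 mM in HEPES/KCl/Mg(OAc)2 buffer, was flowed over sequenced MiSeq chips carrying barcoded ribozyme variants transcribed in situ by E. coli RNA polymerase. A hybridised Cy3 probe tracked the variants at 37 °C as tiles were imaged over ~14 h. kobs, kcat and KM were obtained by fitting normalised per-tile medians to exponential decays and then applying weighted Michaelis–Menten fits across concentrations.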

[2] = variants of: B1; assay: self-cleavage kobs at 40 uM GlcN6P; higher = faster cleavage; RNA array
Procedure, shortened: as §1

[3] = variants of: B1; assay: self-cleavage kobs at 160 uM GlcN6P; higher = faster cleavage; RNA array
Procedure, shortened: as §1

[4] = variants of: B1; assay: self-cleavage kobs at 640 uM GlcN6P; higher = faster cleavage; RNA array
Procedure, shortened: as §1

[5] = variants of: B1; assay: self-cleavage kobs at 2500 uM GlcN6P; higher = faster cleavage; RNA array
Procedure, shortened: as §1

[6] = variants of: B1; assay: self-cleavage kobs at 10000 uM GlcN6P; higher = faster cleavage; RNA array
Procedure, shortened: as §1

[7] = variants of: B1; assay: KM; higher = weaker cofactor use; RNA array
Procedure, shortened: as §1

| Variant | kcat [1] [s⁻¹] | self-cleavage kobs at 40 uM GlcN6P [2] [s⁻¹] | self-cleavage kobs at 160 uM GlcN6P [3] [s⁻¹] | self-cleavage kobs at 640 uM GlcN6P [4] [s⁻¹] | self-cleavage kobs at 2500 uM GlcN6P [5] [s⁻¹] | self-cleavage kobs at 10000 uM GlcN6P [6] [s⁻¹] | KM [7] [µM] |
| --- | --- | --- | --- | --- | --- | --- | --- |
| AUAAAAGCGCCAGAACUACAGAAAUGUAGUUGACGAGGAGAAGGUUUAUCGAAUUUUCGGCGGAUGCCUCCAAA | 0.00567 ± 0.0025 | 0.000349 ± 0.00013 | 0.00036 ± 6.4e-05 | 0.000923 ± 0.0001 | 0.00264 ± 0.00017 |  |  |
| AUAAAAGCGCCAGAACUACAGAAAUGUAGUUGACGAGGAGACGGUUUAUCGAAUUUUCGGCGGAUGCCUCCAAA | 4.51e-05 ± 1.7e-05 |  |  |  | 6.51e-05 ± 1.8e-05 | 3.53e-05 ± 1.3e-05 |  |
| AUAAAAGCGCCAGAACUACAGAAAUGUAGUUGACGAGGAUGAGGUAUAUCGAAUUUUCGGCGGAUGCCUCCAAA | 0.000471 ± 0.00012 |  |  | 6.83e-05 ± 2.4e-05 | 0.00028 ± 5.4e-05 | 0.000331 ± 7.2e-05 | 2940 ± 1400 |
| AUAAAAGCGCCAGAACUACAGAAAUGUAGUUGACGAGGAUGUGGUUUAUCGAAUUUUCGGCGGAUGCCUCCAAA | 0.000115 ± 2e-05 |  | 2.53e-05 ± 1.2e-05 | 4.15e-05 ± 9.6e-06 | 0.000109 ± 1.3e-05 | 9.45e-05 ± 1.4e-05 |  |
| AUAAAAGCGCCAGAACUACAGAAAUGUAGUUGACGAGGAUGAGGUUUAUCGGAUUUUCGGCGGAUGCCUCCAAA | 0.000217 ± 3.4e-05 |  |  | 7.61e-05 ± 1.5e-05 | 0.000112 ± 1.8e-05 | 0.000206 ± 2.5e-05 | 1490 ± 600 |
| AUAAAAGCGCCAGAACUACAGAAAUGUAGUUGACGAGGAUGAGGUUUAUCGUAUUUUCGGCGGAUGCCUCCAAA | 0.000102 ± 6.2e-06 |  |  |  | 4.82e-05 ± 9.8e-06 | 8.17e-05 ± 6.8e-06 | 2510 ± 550 |
| AUAAAAGCGCCAGAACUACAGAAAUGUAGUUGACGAGGAUGAGGUUUAUCGAAUUUUCGGCGGAUCCCUCCAAA | 0.000542 ± 7.3e-05 |  |  |  |  | 0.00046 ± 6.4e-05 | 2060 ± 890 |
| AUAAAAGCGCCAGAACUACAGAAAUGUAGUUGACGAGGAUGAGGUUUAUCGAAUUUUCAGCGGAUGCCUCCAAA | < 1e-05 |  | < 1e-05 | < 1e-05 |  |  |  |
| AUAAAAGCGCCAGAACUACAGAAAUGUAGUUGACGAGGAUGAGGUUUAGCGAAUUUUCGGCGGAUGCCUCGAAA | 0.000114 ± 2.6e-05 |  |  |  | 8.01e-05 ± 2.8e-05 | 9.53e-05 ± 1.8e-05 |  |
| AUAAAAGCGCCAGAACUACAGAAAUGUAGUUGACGAGGAUAAGGUUUAUCGAAUUUUCGGCGGAUGCCUCCAAA | 0.000118 ± 3.1e-06 |  |  | 3.9e-05 ± 1.1e-05 | 7.51e-05 ± 9.8e-06 | 0.000104 ± 9.9e-06 | 1380 ± 130 |
| AUAAAAGCGCCAGAACUACAGAAAUGUAGUUGACGAGGAUGAGGUUUAUCGAAUUUACGGCGGAUGCCUCCAAA | 6e-05 ± 6.8e-06 | < 1e-05 |  |  |  | 2.24e-05 ± 1e-05 |  |
| AUAAAAGCGCCAGAACUACAGAAAUGUAGUUGACGAGGAGAAGGUUUAUCGAAUUUUCGGCGGAUGCCUUCAAA | 0.0433 ± 0.0066 | 0.00159 ± 0.00013 | 0.0046 ± 0.0007 | 0.0179 ± 0.0025 | 0.0385 ± 0.013 | 0.0374 ± 0.0057 | 1100 ± 210 |
| AUAAAAGCGCCAGAACUACAGAAAUGUAGUUGACGAGGAUGAGGUUGAUCGAAUUUUCGGCGGAUGCCUCCAAA | 0.000765 ± 0.00012 | 4.04e-05 ± 1e-05 | 0.000115 ± 2.6e-05 | 0.000262 ± 5.2e-05 | 0.000699 ± 0.00013 | 0.000681 ± 0.00011 | 908 ± 250 |
| AUAAAAGCGCCAGAACUACAGAAAUGUAGUUGACGAGGAUGAGGUUUAUCGAAUCUUCGGCGGAUGCCUCCAAA | 0.000228 ± 3.6e-06 |  |  |  |  | 0.000135 ± 1.7e-05 | 6810 ± 240 |
| AUAAAAGCGCCAGAACUACAGAAAUGUAGUUGACGAGGAUGAGGUUUAUCGACUUUUCGGCGGAUGCCUCCAAA | 0.00186 ± 0.00029 | 4.37e-05 ± 1.2e-05 | 0.00012 ± 3.1e-05 | 0.000309 ± 4.6e-05 | 0.00086 ± 0.0001 | 0.00149 ± 0.00016 | 2780 ± 760 |
| AUAAAAGCGCCAGAACUACAGAAAUGUAGUUGACGAGGAUGAGGUUUAUCGAGUUUUCGGCGGAUGCCUCCAAA | 0.00428 ± 0.0018 | 0.00024 ± 5.5e-05 | 0.000703 ± 0.0002 | 0.00118 ± 0.00028 | 0.00316 ± 0.00063 | 0.0062 ± 0.0017 |  |
| AUAAAAGCGCCAGAACUACAGAAAUGUAGUUGACGAGGAUGAGGUCGAUCGAAUUUUCGGCGGAUGCCUCCAAA | 2.86e-05 ± 4.9e-06 |  |  |  |  |  |  |
| AUAAAAGCGCCAGAACUACAGAAAUGUAGUUGACGAGGAUGAGGUUUAUCGAAUUUUCGGCGGAUGCCCCCAAA | 8.37e-05 ± 1.1e-05 |  |  | 6.56e-05 ± 2e-05 | 9.26e-05 ± 1.9e-05 | 7.39e-05 ± 1.2e-05 |  |
